The source of these data is patent publication US20230392126A1, “TISSUE ORGANOIDS” (priority 2016, published 2023).

Data set [1] is described as follows: hBChE in blood by ELISA, mice grafted with mouse skin organoids. The format is in vivo. An excerpt:
To efficiently transplant mouse epidermal progenitor cells, a new organotypic culture model with mouse epidermal progenitor cells was developed in vitro by culturing the cells on top of acellularized mouse dermis. Exposure to the air/liquid interface can induce stratification of cultured cells to generate a skin-like organoid in vitro. […] To investigate the potential therapeutic effect of hBChE expression in vivo, we transplanted the organoids to isogenic host animals (CD1 and C57BL/6) (FIGS. 22A and 22B-C). […] Expression of hBChE in grafted animals was stable for more than 10 weeks (FIG. 22H).

Data set [2] in a line: Acquisition of ethanol CPP in GhBChE and GWT mice. The format is in vivo, mouse. Particulars: 2 g/kg ethanol i.p., specificity control. How it is done:
CPP apparatus: The CPP apparatus (FIG. 17; Med Associates, E. Fairfield, VT, USA) consisted of two larger chambers (16.8×12.7×12.7 cm), which were separated by a smaller chamber (7.2×12.7×12.7 cm) as previously described (Yan et al., 2013). […] Time spent in each chamber was measure via photobeam breaks and recorded. CPP was determined on testing days via time spent in the drug-paired side minus time spent in the saline-paired side.
Acquisition of CPP: A biased CPP procedure was used similar to that from a previous study (Yan et al., 2013). Acquisition of CPP consisted of three sequential procedures—pretest, conditioning, and test. […] On Day 6 (test day) mice were allowed to explore the entire chambers for 20 min and time spent in each area was recorded. […]
Next, protection against development of cocaine-seeking was assessed using the conditioned place preference (CPP) paradigm, which is thought to model reward learning and seeking because experimental animals approach and remain in contact with cues that have been paired with the effects of the reward. hBChE-expressing cells were grafted to cocaine-naïve mice with GWT animals as controls. […] As an additional control, ethanol CPP was measured after 4 days of conditioning in GhBChE and GWT mice.

The conditions of data set [3]: after i.v. injection; cited from earlier work.

B1: hBChE: modified human butyrylcholinesterase (E30-6, SEQ ID NO: 41), cocaine hydrolase, expressed from engineered epidermal cells / skin grafts (protein)
chain: MHSKVTIICIRFLFWFLLLCMLIGKSHTEDDIIIATKNGKVRGMNLTVFGGTVTAFLGIPYAQPPLGRLRFKKPQSLTKWSDIWNATKYANSCCQNIDQSFPGFHGSEMWNPNTDLSEDCLYLNVWIPAPKPKNATVLIWIYGGGFQTGTSSLHVYDGKFLARVERVIVVSMNYRVGALGFLALPGNPEAPGNMGLFDQQLALQWVQKNIAAFGGNPKSVTLFGESSGAASVSLHLLSPGSHSLFTRAILQSGSANAPWAVTSLYEARNRTLNLAKLTGCSRENETEIIKCLRNKDPQEILLNEAFVVPYGTALGVNFGPTVDGDFLTDMPDILLELGQFKKTQILVGVNKDEGTWFLVGGAPGFSKDNNSIITRKEFQEGLKIFFPGVSEFGKESILFHYTDWVDDQRPENYREALGDVVGDYNFICPALEFTKKFSEWGNNAFFYYFEHRSSKLPWPEWMGVMHGYEIEFVFGLPLERRDNYTKAEEILSRSIVKRWANFAKYGNPNETQNNSTSWPVFKSTEQKYLTLNTESTRIMTKLRAQQCRFWTSFFPKVLEMTGNIDEAEWEWKAGFHRWNNYMMDWKNQFNDYTSKKESCVGL
modifications: Human mutant BChE
With B1, the “duration of stable hBChE expression in grafted animals” value in data set [1] (hosts with intact immune systems) was “more than 10 weeks”. The “level of human BChE in the blood” value in data set [1] (mice grafted with hBChE-expressing mouse cells) is listed as “significantly elevated levels of human BChE in the blood”. Also, the “ethanol CPP after 4 days of conditioning” value in data set [2] is on record as “spent significantly more time in ethanol-paired environments”. Also, the half-life in vivo result in data set [3] is “short half-life in vivo”.
